Measurements published in patent US20150147342A1 (published 2015).

B1: H1H690P (antibody, V domains shown)
VH: EVQLVESGGGLVQPGESLRLSCAASGFTFSSYAMSWVRQGPGKGLEWVSSITGSGDTTYYADSVKGRFTISRDNSKNTLYLHMNSLRAEDTAVYYCAKDFLDYSTYLAFDLWGQGTMVTVSS
VL: EIVLTQSPATLSLSPGERATLSCRASQSVSSYLTWYQQKPGQAPRLLSYDASNRATGIPARFSGSGSGTDFTLTISSLEPEDFAVYYCQQRSNWPLTFGGGTKVEIK
notes: Fully human antibody, human IgG1
B2: H1H691P (antibody, V domains shown)
VH: EVQLVESGGGLVQPGRSLRLSCAASGFTFDDYAMHWVRQAPGKGLEWVSGISWNSGDIGYADSVKGRFTISRDNAKNSLYLQMNSLRAQDTALYYCAKAYGDYYYFYGMDVWGQGTTVTVS
VL: EIVLTQSPGTLSLSPGERATLSCRASQSVSSSYLAWYQQKPGQAPRLLIFSASSRATGIPDRFSGSGSGTDFTLTISRLEPEDFAVYYCQQYDNSLTFGGGTKVEIK
notes: as for B1
B3: H1H704P (antibody, V domains shown)
VH: QVQLVESGGDVVQPGRSLRLSCAASGFTFSSYGMHWVRQAPGKGLEWVAIIWYDGSNKYYADSVKGRFTISRDNSKNTLYLQMNSLRVEDTAVYSCARDFSISSRHFDYWGQGTLVTVSS
VL: DIQMTQSPSSLSASVGDRVTITCRASQAINNYLAWFQQKPGKAPKSLIYATSNLQSGVPSQFSGSGSGTDYTLTISSLQPEDFATYYCQQYYIYPITFGQGTRLEIK
notes: as for B1
B4: H1H706P (antibody, V domains shown)
VH: QVQLVESGGGVVQPGRSLRLSCAASGFTFSSYGMHWVRQAPDKGLEWVAVKWDDGSNKYYADSVKGRFTISRDNSKNTLYLQMNSLRAEDTAVYYCAREGPYDFYSGYGAFDIWGQGTMVTVSS
VL: DIQMTQSPSSLSASVGDRVTITCRASQGISNYLAWFQQKPGKAPKSLIYAASSLQSGVPSKFSGSGSGTDFTLTISSLQPEDFATYYCQQYNSYPRTFGQGTKVEIK
notes: as for B1
B5: H1H707P (antibody, V domains shown)
VH: B4 VH
VL: not shown
notes: as for B1
B6: H1H724N (antibody, V domains shown)
VH: QVQLVESGGGVVQPGRSLRLSCAASGFTLSNYGMHWVRQAPGKGLEWVAVIWHDGSNTYYADSVKGRFTISRDNSKNTLYLQMNSLRAEDTAVYYCTREGLDFWSGYYPNWFDPWGQGTLVTVSS
VL: DIQMTQSPSSLSASVGDRVTITCRASQGIRNDLGWYQQKPGKAPKRLIYAASNLQGGVPSRFSGSGSGTEFTLTISSLQPEDFAAYYCLQHNIYPLTFGGGTKVEIK
B7: H1H744N (antibody, V domains shown)
VH: QVQLVQSGVEVKKPGASVKVSCKTSGYTFSNNGFSWVRQAPGQGLEWLGWISGYNGNTNYAQKFQGRVTMTTDTSTSTAYMELRTLRSDDTAVYYCARDQDYSNFHWLDPWGQGTLVTVAS
VL: DIQMTQSPSSVSASVGDRVIITCRASQGLSSWLAWYQQKPGTAPKLLIHSASSLQTGVPSRFSGSGSGTEFALTINSLQPEDFGTYYCQQANSFPLTFGGGTRVEIK

Columns and labels:
Human Ang-2FD-hFc = target: T1, Human Ang-2FD-hFc (human); experiment: ELISA, 16.67 nM antibody + 2 nM human Ang-2FD-hFc, on coated hTie-2-mFc (competitor)
T1 construct: Order of the pieces follows the name (Ang-2FD, then hFc); also called Dimeric Human Ang-2FD; human Ang-2FD protein conjugated to human IgG
Experimental: (§1) Tie-2 is a natural receptor for Ang-2. Anti-Ang-2 antibodies were tested for their ability to block Ang-2 binding to human Tie-2 (hTie-2). hTie-2-mFc (a chimeric construct consisting of human Tie-2 conjugated to mouse IgG; SEQ ID NO:525) was coated onto 96-well plates at a concentration of 2 μg/ml and incubated overnight followed by washing four times in wash buffer (PBS with 0.05% Tween-20). The plate was then blocked with PBS (Irvine Scientific, Santa Ana, Calif.) containing 0.5% BSA (Sigma-Aldrich Corp., St. Louis, Mo.) for one hour at room temperature. In a separate plate, purified anti-Ang-2 antibodies, at a starting concentration of 50 nM, were serially diluted by a factor of three across the plate. […] The antibody/Ang-2FD-Fc mixture was then added to the plate containing hTie-2-mFc and incubated for one hour at room temperature.

Monkey Ang-2FD-hFc = target: T2, Monkey Ang-2FD-hFc (monkey (Macca fascicularis)); experiment: ELISA, 16.67 nM antibody + 2 nM monkey Ang-2FD-hFc, on coated hTie-2-mFc (competitor)
T2 construct: Order of the pieces follows the name; also called Dimeric Monkey Ang-2FD
Experimental: as §1

Mouse Ang-2FD-hFc = target: T3, Mouse Ang-2FD-hFc (mouse (Mus musculus)); experiment: ELISA, 16.67 nM antibody + 8 nM mouse Ang-2FD-hFc, on coated hTie-2-mFc (competitor)
T3 construct: Order of the pieces follows the name; also called Dimeric Mouse Ang-2FD
Experimental: as §1

Binder	Percent Blocking of Ang-2FD Binding to Tie-2 (Human Ang-2FD-hFc) [%]	Percent Blocking of Ang-2FD Binding to Tie-2 (Monkey Ang-2FD-hFc) [%]	Percent Blocking of Ang-2FD Binding to Tie-2 (Mouse Ang-2FD-hFc) [%]
B1	97.2	99.6	98
B2	97.4	99.8	96.7
B3	97		41.8
B4	97.1	99.8	95.9
B5	95.1		93.8
B6	96.6	96.6	97.1
B7	97.9	96.2	97.6
